Columns and labels:
LILRB4-Fc [1] = target: T1, LILRB4-Fc (Homo sapiens, UniProt Q8NHJ6); assay: Surface plasmon resonance (SPR) binding of APOE to LILRB4-Fc; conditions: APOE 1.5625 nM to 100 nM
Description: (§1) FIGS. 25a-251—APOE binds LILRB4 and supports AML migration. FIG. 25a: As shown by analysis of the percentage of cells in the LILRB4 reporter system that are GFP^+, human serum and mouse serum specifically activate LILRB4. FIG. 25b: Recombinant APOE activates human LILRB4 and mouse PIRB in reporter systems. FIG. 25c: Serum from APOE-null mouse was unable to activate LILRB4. FIG. 25d: Lipid-reconstituted APOE (APOE-POPC) activates human LILRB4 as well as recombinant APOE in reporter systems. […] Cells stained with anti-His tag-APC served as a negative control. FIG. 25f: Binding kinetics of human APOE-3 to LILRB4-ECD-Fc were measured using surface plasmon resonance (SPR). LILRB4-ECD-Fc was immobilized on Protein A biosensor tips and incubated with APOE-3 concentrations ranging from 1.5625 nM to 100 nM. FIG. 25g: The activation of LILRB4 by APOE was reduced by mutation at N-terminal of APOE. FIG. 25h: The activation of LILRB4 by APOE was reduced by the indicated single amino acid mutation of LILRB4. FIG. 25i-FIG. 25l: APOE is necessary for LILRB4-mediated homing. Forced expression of human lilrb4 on mouse leukemia C1498 cells increases leukemia cell homing in wildtype (WT) recipient mice (n=5) (shown in FIG. 25i). Human lilrb4-expressing C1498 cells (1), but not control GFP-expressing C1498 cells (FIG. 25k), were less capable of homing in APOE-null (KO) mice (n=5) than in WT mice (n=5); Mice were sacrificed at 20 hrs after injection of leukemia cells. GFP was used to detect leukemia cells by flow cytometry.
(§2) FIGS. 29a-29g—Three APOE isoforms bind to human LILRB4. FIGS. 29a-c: Binding kinetics of APOE 2, 3, and 4 to LILRB4-Fc were measured using surface plasmon resonance (SPR). LILRB4-Fc was immobilized on Protein A biosensor tips and incubated with APOE concentrations ranging from 1.5625 nM to 100 nM. […] (FIGS. 29d-f) Binding kinetics of APOE 2, 3, and 4 to LILRB4-Fc were measured using Bio-layer Interferometry (Octet). LILRB4-Fc was immobilized on Protein A biosensor tips and incubated with APOE concentrations ranging from 44 nM to 1176 nM. […] (FIG. 29g) Binding kinetics of APOE 3 to His-LILRB4 was measured using microscale thermophoresis (MST).

LILRB4-Fc [2] = target: T1, LILRB4-Fc; assay: Bio-layer interferometry (Octet) binding of APOE to LILRB4-Fc; conditions: APOE 44 nM to 1176 nM
Protocol: as §2
Bio-layer Interferometry. Binding interactions analyses between LILRB4-Fc with APOE2, APOE3, and APOE4 were performed on the Octet RED96 (ForteBio, Pall Corporation). All interaction studies were performed with the protein A dip-and-read biosensors (ForteBio). All binding experiments were performed using the Octet Red and kinetics buffer at 30° C. LILRB4-Fc coated biosensors (25 μg/ml LILRB4-Fc was loaded for 420 s) were washed in kinetics buffer before monitoring of association (300 s) and dissociation (600 s) of APOEs. Background wavelength shifts were measured from reference sensors that were loaded only with LILRB4-Fc.

LILRB4 = target: T2, LILRB4 (Homo sapiens, UniProt Q8NHJ6); assay: LILRB4 chimeric receptor reporter cells (NFAT-GFP); type: cell-based; conditions: for Activation of LILRB4 reporter by APOE isoforms: 40 μg/ml APOEs coated on plates or soluble; for Activation of LILRB4 reporter: percentage of GFP+ reporter cells
T2 construct: fusion of the extracellular domain (ECD) of individual LILRBs and their mouse orthologues; PILRbeta part (fusion partner); expressed in transfected cells
T2 sequence (Q8NHJ6 with tags, fused parts or gaps): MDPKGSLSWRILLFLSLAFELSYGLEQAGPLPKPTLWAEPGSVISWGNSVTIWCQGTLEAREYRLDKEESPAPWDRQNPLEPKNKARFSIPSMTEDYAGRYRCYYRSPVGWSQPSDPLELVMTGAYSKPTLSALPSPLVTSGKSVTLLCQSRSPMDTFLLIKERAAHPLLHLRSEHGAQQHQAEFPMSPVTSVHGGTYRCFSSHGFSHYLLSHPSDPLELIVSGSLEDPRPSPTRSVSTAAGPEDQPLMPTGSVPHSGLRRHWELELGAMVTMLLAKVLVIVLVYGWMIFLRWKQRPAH
Description: The inventors sought to determine if antagonizing LILRB4 could prevent AML development by reversing LILRB4-mediated immune inhibition. To identify potential agonists and antagonists of LILRBs, the inventors generated individual stable chimeric receptor reporter cells based on fusion of the extracellular domain (ECD) of individual LILRBs and their mouse orthologues PirB^27 and gp49B1^28, with the intracellular domain of paired immunoglobulin-like receptor β, which signals through the adaptor DAP-12 to activate NFAT promoter-driven GFP expression, as the inventors have described^2, 31. With help from this system, the inventors generated novel anti-LILRB4 blocking antibodies to further assess LILRB4-mediated signaling (FIG. 10).
(§3) Chimeric receptor reporter cells. The inventors constructed a stable chimeric receptor reporter cell system as described^2 31 to test the ability of a ligand to bind to the ECD of individual LILRBs, PirB, and gp49B1 and to trigger the activation or inhibition of the chimerically fused intracellular domain of paired immunoglobulin-like receptor β, which signals through the adaptor DAP-12 to activate the NFAT promoter. If an agonist or antagonist binds the ECD and activates or suppresses the chimeric signaling domain, an increase or decrease, respectively, in GFP expression is observed.
APOE competition assay was used to screen LILRB4 blocking antibodies. Briefly, APOE proteins were pre-coated on 96-well plate at 37° C. for 3 hrs. After 2 times washing by PBS, 2×10^4 LILRB4 reporter cells were seeded in each well; meanwhile, indicated anti-LILRB4 antibodies were added into culture media. After 16 hrs, the percentage of GFP^+ reporter cells was analysed by flow cytometry.

THP-1 cells [3] = assay: Transwell trans-endothelial migration of THP-1 cells; type: cell-based, human; conditions: 2.5 μM STAT inhibitor
THP-1 cells [4] = assay: APOE binding to THP-1 cells by flow cytometry; design: species or system human; conditions: lilrb4-knockout versus wild-type THP-1 cells
Description: as §1, with “Human lilrb4-expressing C1498 cells (1), but not control GFP-expressing C1498 cells (FIG. 25k), were less capable of homing in APOE-null (KO) mice (n=5) than in WT mice (n=5); Mice were sacrificed at 20 hrs after injection of leukemia cells. GFP was used to detect leukemia cells by flow cytometry.” left out

gp49B1 = target: T3, gp49B1 (Mus musculus, UniProt Q64281); assay: gp49B1 chimeric receptor reporter cells; type: cell-based
T3 construct: PILRbeta part (fusion partner); expressed in transfected cells
T3 sequence (Q64281 24-238): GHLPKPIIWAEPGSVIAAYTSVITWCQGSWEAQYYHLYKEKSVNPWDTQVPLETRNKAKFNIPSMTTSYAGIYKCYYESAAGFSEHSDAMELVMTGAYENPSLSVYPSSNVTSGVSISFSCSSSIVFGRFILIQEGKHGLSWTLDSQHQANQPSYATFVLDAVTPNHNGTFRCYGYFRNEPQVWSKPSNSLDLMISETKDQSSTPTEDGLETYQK
Description: as §3

PirB = target: T4, PirB (Mus musculus, UniProt P97484); assay: PirB chimeric receptor reporter cells; type: cell-based
T4 construct: PILRbeta part (fusion partner); expressed in transfected cells
T4 sequence (P97484 25-642): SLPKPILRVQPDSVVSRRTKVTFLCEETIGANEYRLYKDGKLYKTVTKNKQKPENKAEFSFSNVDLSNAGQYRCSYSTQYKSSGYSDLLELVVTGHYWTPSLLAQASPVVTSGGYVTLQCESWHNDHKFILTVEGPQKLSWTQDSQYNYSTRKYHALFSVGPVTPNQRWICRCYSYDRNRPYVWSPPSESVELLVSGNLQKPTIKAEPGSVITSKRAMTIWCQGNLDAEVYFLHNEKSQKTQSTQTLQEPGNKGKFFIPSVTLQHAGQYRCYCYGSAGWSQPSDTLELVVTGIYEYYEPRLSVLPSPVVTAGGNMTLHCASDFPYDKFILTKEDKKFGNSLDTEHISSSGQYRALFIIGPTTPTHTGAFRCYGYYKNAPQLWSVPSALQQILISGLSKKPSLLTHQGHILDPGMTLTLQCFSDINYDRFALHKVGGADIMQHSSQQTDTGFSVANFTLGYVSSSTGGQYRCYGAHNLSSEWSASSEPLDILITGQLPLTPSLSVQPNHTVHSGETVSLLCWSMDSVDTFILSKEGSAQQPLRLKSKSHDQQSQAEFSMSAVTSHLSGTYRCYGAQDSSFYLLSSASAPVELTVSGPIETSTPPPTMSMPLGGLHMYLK
Description: as §3

[5] = tested on: T cells co-cultured with THP-1 cells; assay: Tumor cell/T cell co-culture assay; type: cell-based, human; conditions: T cells with irradiated THP-1 cells, protein supplemented
Protocol: Tumor cell/T cell co-culture assay. Human T cells isolated from health donor peripheral blood (PB009-1-0, Allcells) were co-cultured with irradiated (28 Gy) THP-1 cells in a U-bottom 96 well-plate for 3-7 days. Anti-CD3/CD28-coated beads (#11161D, Thermo Fisher), 50 U/ml recombinant human IL-2, and 5 ng/ml recombinant human IL-7 were supplemented to the medium. In some experiments, THP-1 cells were cultured in the upper chamber of transwell inserts (pore size is 3 μM, #09-761-80, Thermo Fisher) for the U-bottom 96 well-plate. For primary AML or B-ALL samples, patient CD3^+ T cells were collected and patient leukemia cells were sorted as CD33^+ and CD19^+ for AML and B-ALL, respectively.
CD8^+ T cells (5×10^4 per well) isolated from hPBMCs of a healthy donor (Interstate Blood Bank) were stimulated with anti-CD3/CD28/CD137-coated beads (11163D, Thermo Fisher) or cultured without stimulation for 2 days in a 96-well plate. Then, 5×10^3 human leukemia THP-1-Luc-GFP cells and 50 to 500 μg/ml anti-LILRB4 antibody C84 or control antibody mIgG were added. Cell numbers were determined on day 7 in triplicate wells. Anti-CD8 and anti-CD28 were used to detect human CTL cells; THP-1 cells were positive for GFP. […]

T1 sequence (Q8NHJ6 22-259 limits assumed): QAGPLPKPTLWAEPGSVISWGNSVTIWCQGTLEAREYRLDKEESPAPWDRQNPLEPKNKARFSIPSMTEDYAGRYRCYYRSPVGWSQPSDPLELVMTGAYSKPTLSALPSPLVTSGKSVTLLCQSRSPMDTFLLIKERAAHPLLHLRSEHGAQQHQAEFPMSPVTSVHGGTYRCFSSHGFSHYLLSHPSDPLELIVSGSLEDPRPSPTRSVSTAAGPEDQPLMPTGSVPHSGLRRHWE

Molecule: APOE2: isoform of human APOE, ligand of LILRB4
- Kd (LILRB4-Fc [1]): 5.53 nM
- Kd (LILRB4-Fc [2]): 60.7 nM
- Activation of LILRB4 reporter by APOE isoforms (LILRB4): activate

Molecule: O=[N+]([O-])c1ccc2c(c1)S(=O)(=O)C=C2 [stattic, reference compound]
- THP-1 cell transmigration across endothelial cells (THP-1 cells [3]): decreases

Molecule: APOE-POPC: liposome-reconstituted APOE protein
- Activation of LILRB4 reporter (LILRB4): same ability as lipid-free APOE protein

Molecule: recombinant APOE: recombinant APOE protein, isoform not stated at the place
- Binding of APOE to THP-1 cells (THP-1 cells [4]): significantly decreased
- Kd (LILRB4-Fc [1]): 2 nM
- Activation of gp49B1 reporter (gp49B1): not
- Activation of mouse PirB reporter (PirB): specifically activated
- Activation of LILRB4 reporter (LILRB4): activates

Molecule: APOE3: isoform of human APOE, ligand of LILRB4
- Kd (LILRB4-Fc [1]): 2.48 nM
- Kd (LILRB4-Fc [2]): 61.7 nM
- Activation of LILRB4 reporter by APOE isoforms (LILRB4): activate

Molecule: APOE4: isoform of human APOE, ligand of LILRB4
- Kd (LILRB4-Fc [1]): 3.57 nM
- Kd (LILRB4-Fc [2]): 48.4 nM
- Activation of LILRB4 reporter by APOE isoforms (LILRB4): activate

B1: Mut-N: N-terminal mutant of human APOE: R142A/K143A/R145A/K146A/R147A/R150A (protein)
chain: KVEQAVETEPEPELRQQTEWQSGQRWELALGRFWDYLRWVQTLSEQVQEELLSSQVTQELRALMDETMKELKAYKSELEEQLTPVAEETRARLSKELQAAQARLGADMEDVCGRLVQYRGEVQAMLGQSTEELRVRLASHLAALAAALLADADDLQKRLAVYQAGAREGAERGLSAIRERLGPLVEQGRVRAATVGSLAGQPLQERAQAWGERLRARMEEMGSRTRDRLDEVKEQVAEVRAKLEEQAQQIRLQAEAFQARLKSWFEPLVEDMQRQWAGLVEKVQAAVGTSAAPVPSDNH
- Activation of LILRB4 reporter (LILRB4): significantly reduced

B2: CCL4: CCL4 protein supplemented in co-culture media (protein, UniProt P13236 24-92, looked up)
C-C motif chemokine 4: APMGSDPPTACCFSYTARKLPRNFVVDYYETSSLCSQPAVVFQTKRSKQVCADPSESWVQEYVYDLELN
- T cell proliferation in coculture [5]: suppressed

B3: mouse APOE: mouse APOE protein (protein)
chain: EGEPEVTDQLEWQSNQPWEQALNRFWDYLRWVQTLSDQVQEELQSSQVTQELTALMEDTMTEVKAYKKELEEQLGPVAEETRARLGKEVQAAQARLGADMEDLRNRLGQYRNEVHTMLGQSTEEIRARLSTHLRKMRKRLMRDAEDLQKRLAVYKAGAREGAERGVSAIRERLGPLVEQGRQRTANLGAGAAQPLRDRAQAFGDRIRGRLEEVGNQARDRLEEVREHMEEVRSKMEEQTQQIRLQAEIFQARLKGWFEPIVEDMHRQWANLMEKIQASVATNPIITPVAQENQ
- Activation of LILRB4 reporter (LILRB4): can activate
